B1: Human Oncostatin M (OSM), tag-free, purified from the MBP-OSM fusion expressed in BL21(DE3) (ligand, UniProt P13725 26-221, looked up)
chain: AAIGSCSKEYRVLLGQLQKQTDLMQDTSRLLDPYIRIQGLDVPKLREHCRERPGAFPSEETLRGLGRRGFLQTLNATLGCVLHRLADLEQRLPKAQDLERSGLNIEDLEKLQMARPNILGLRNNIYCMAQLLDNSDTAEPTKAGRGASQPPTPTPASDAFQRKLEGCRFLHGYHRFMHSVGRVFSKWGESPNRSRR
notes: Oncostatin M, human; Tag removed with TEV protease at ENLYFQ/G; surmised); Printed size 22.05 kDa; also called MBP fusion-derived OSM; OSM purified from MBP-OSM; source: E. coli BL21(DE3), 18 °C, purified (IMAC, TEV protease cleavage, second IMAC); not shown: His6, N-terminal, cleaved; MBP, N-terminal, cleaved
B2: Human Oncostatin M (OSM), tag-free, purified from the His6-OSM fusion expressed in Origami 2 (ligand, UniProt P13725 26-221, looked up)
chain: B1 chain
notes: Oncostatin M, human; Tag removed with TEV protease at ENLYFQ/G; a glycine probably stays at the N-terminus (surmised from the cysteine numbering); Printed size 22.05 kDa; also called His6 fusion-derived OSM; OSM purified from His-OSM; source: E. coli Origami 2(DE3), 18 °C, purified (IMAC with 2 M urea, TEV protease cleavage, second IMAC); not shown: His6, N-terminal, cleaved

Experiments:
[1] = molecular target: the molecule itself; assay: non-reducing SDS-PAGE; final purified tag-free OSM run on 10% tricine SDS-PAGE under reducing and non-reducing conditions, Coomassie stained
[2] = molecular target: the molecule itself; assay: SEC; HiLoad 16/600 Superdex 75 pg, 1x PBS pH 7.4, 1 mL/min; final proteins after tag cleavage

Protein	binding result [1]	binding result [2]
B1	binds	–
B2	–	binds

— article PMC6757106, “Prokaryotic soluble overexpression and purification of oncostatin M using a fusion approach and genetically engineered E. coli strains” (Scientific Reports, 2019)
